This data set can be described thus: protease stability score; higher = more stable; yeast display proteolysis, trypsin and chymotrypsin.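 Note: relative to predicted unfolded state with 0 unfolded-like and 1 meaning tenfold more protease.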
As to “DEEEEILREFSEKWLHAFRTGDWRDIWHLMDPHVKVIIFVDGREKEIHGREEYATQLHERLEKVKGMRFRDKDMDHVNGRLVINVTVHQGDKHKEFRIIIDVVNGRVKRIEIHLH”, the protease stability score came to 2.06.
The sequence “DEEEEILRRFIEEWLYAELTGDFHVLHELFDPNVRIEINGVDKHGMHIVIKELLEFYRRVKNLRVEFELRDEKRFDGVVIIIGVRRISINGQTHEEETILVIVKVNGRWVMKEIWFN” came in with a protease stability score of 1.64.
The value for “DEEEEILRTFIRLMHEAWLTGDWKTFEEMLDPHARLHINGKDLHGREQMARRIEELGIKHVEDKDMETQGNKIHLKQIVYVNGRTFELRQFIIKVNGRWVIQHVEVITR” was 1.38.
The value for “DEEEEIMRKIIEDLRHNTETGDEELMQDLMDPHARIDIDGQKLHGREYVRFLHDEFKGATWIWREVRLQGDKLDVHVEVRFDGRTLHVDIHYVIVNGRTKEIRVHWD” was 1.28; that for “DEEEEINKKIVEDLFRALITGDEERQLKNMDPNTKIRTNVNGQDYIFHGRDLWVTLWNRFKNLRVEIESVHRQGNKIHFDTRLLFNGRIFQYHIVVISVNGQTKELKEHDE” was 1.24.
For the sequence “DEEEEISRRIVKLLIELFETGDEEKWKELADPDARVDIDGVDSVGRKHAIHLLHEWKEQLGFKHHRIHSIHVYGEFIDVDGLLIVNGRKIRIHFHFIVVNGRLKEQRLHIE”, the protease stability score stood at 1.3.
With “DEEEEIVMKNARDLIHLTQTGDFEKQRHLLDPHVLVVLVQGDKRIEQHGWHFWKYLMKEIRIKHIRIDHVEAQGNKAQVRGTVDGNINGRDTHWEFELTFVFIDGRIRTIDIRID” the figure was 1.4.
The value for “DEEEEKAKHVLELWSRAMLTGDEDEYKKLADPHTRLIVDGQTFHGWENFTKSHNQIKNIKIDDVHVENHHIQGNKMFVDLRFEMEFNGRILHKETHLFIEKIDGKWLIRTQEIH” was 0.767; that for “DEEEEKDRILVEIWKRLVLTGDEEELLNLADPEARQTVHFNGKEVRNVGMERVIEHNREYLRLMGVDHITVDRSRVVNGRVENHHRVFVGEKEIRFEIEVTIINGRLRSVTIRVR” was 0.379.
The sequence “DEEEEKLKKWADDTIQLLRTGDEEDLYKMLDPHARTEVNGRELHGREEMFKVLKTIWDKVKGIKFLHRDHRLYNGRVEIHGELVIGDKIHKVHIIVLIINGKIKEVEIHIH” registered a protease stability score of 1.39.
“DEEEEKLRELIRIFIEDWKTGDFDSLAHLLDPNARLDIHINGVHLHYHGREKILEFLWRWFERFKNARVELKRIRIVNGRSEIDSETTFNGRSSDMEIDIVIINGRVRSERFKVG” had a protease stability score of 1.47.
With “DEEEEKLRFAVELFEETFRTGDEKLKEHLADPDVRVHYGDFEYHGRETLERWTRFVKGVKVELKSIDIINGVLDLDGTLHFNGRTFDTRYLALKINGRWILKRVIIH” the figure was 1.49; with “DEEEEKSKRMLEIIIHAVMTGDFQHLLDNMDPHVKLDIDGVDLHGRESAEEFVKKVKNLTLHDWKLDHWHIQGDKVTMHVTIDGLYNGKKERTRVIIIALKINGQWHIKSMKID”, 1.9.
“DEEEELAHKATEHWLHLVRTGDEEKISSQADPNTKVEIRQGDKRIDSHGMEHFSELLRKLIEDYGVNHIHVNIVRLIDGRVHVNSLVHVGDKEIKIHIWADKVNGRWIHRNMHVHVG” returned a protease stability score of 0.547.
The value for “DEEEELAIEVVQRWVEDFLTGDFRSFRELADPNTKTRINGQEMHGRHVYVEWFVKWLKQIDHHDFKLHDVKVINGQVHTDGEMRLEVNGREHRSRVELILVIINGRLHMVELRIK” was 2.13; that for “DEEEELAIHFWRLFLHLIITGDWERLTELMDPNVRIDINGKEIHGRELASEHLRKLMEHARFRDHHLEDVKIYDGVVEMHGRIDGRFDGKDVDTRMIVYTVKVNGKWLLKRVVHL” was 2.32; that for “DEEEELAKEMLERFNKSLHTGDEESIERLLDPDVRVIFNGKDLIGRETVADFLKEWRMSVHTFEIRRFHSQGEKMHLDGHTEIKIHFNGKTVHLNHRVEHHMHKVNGRWTIHSIQFL” was 1.18.
“DEEEELARKSLEVWLKSSQTGDENHLEHMFDPNARLNIDGVELIGREHAKIWAKELRIHDIYPRRLRIQGNKLFLDLESDEEYNGKRTHFRRHLVMLKVNGVWIIESMHVE” returned a protease stability score of 1.43.
The sequence “DEEEELARKYTEIYRHFMHTGDEDLNREFADPNTQILQGNKRFHGWKWYLEIVRRLGADHMEIHRVDVQGDKVHNDGRMIVNGKTLHFELIITKIDGRWVLREVRLG” yielded a protease stability score of 1.4.
The value for “DEEEELARRASRKLIELMLTGDEDSLEEMLDPNVKVQIGDKELHGRIAIEIMSRQFKNVRIEVKRLSVQGNYVDLDVRVNINGVWVEQRIQIEKVDGRWTLKENTIV” was 2.23; that for “DEEEELIKHHLELHLEAVKTGDEEHLHRNMDPNVRLHVNGQDRHGREDVSTLLREIRLKDFKIHDVDIQGNKMRFDGFILGEINGREHNVHTTIYAEKVDGRWLIRHFEIR” was 1.04.
In turn, “DEEEELLKDLLRKWLEAMRTGDWEELERLLDPHVRIHIGDKDIHGRELFIELHERELKRIKNVKIVIDDKHIEFQGDKARVDGKLQEQVGDKEITHRVIIIMRVIDGKFESMEVRYV” came in with a protease stability score of 1.08.
With “DEEEELLRKLVEELHKALRTGNEHVLRHLIDPHVRIDIDGRELHGREQFVELWKRLVDELRIHDMKIRSIKTQGDFVHSSTELDLEYGDKKFRLTTELDVRSIDGRVKHVSIRYH”, the protease stability score is 1.53.
The sequence “DEEEELLRRLIKMLLHLMRTGDEDETANLLDPNVRIEWNGRTFHGREEAKRWLFELLSRVDVVKDIKIHDYDRYGDFVLLDVRLHGEIDGVPTETIFIIIIRKINGRWMIHQIYLE” gave a protease stability score of 1.42.
With “DEEEELLRRMLHLLYHFLKTGDEDTLSRLMDPNYLLIIGDKEHHGREEYRKVMKRADVLEIMHIHDVHFQGDKIHIDGHSRWRVGDKMHETRIEIIAVKFNGRWHFHSIIVR” the figure was 0.804; with “DEEEELLTRTSELFSHNLHTGDEDSLIHLADPHTRIDVDGVQLHGMETWSEQFSRDMHEHGARSEVHYKRREVVGDKAKIHLVLTITYNGRTIIRNIELRMTKIDGVWILRHISYH”, 1.26.
“DEEEELMHRLVELFLKALITGDEETLSHLADPNVRLHIDGRHIHGWQFSVKEWLRESSEIRMELQIRHIHLIGDKVHVHGQLSIHQGNKHIHREVIYDFVIINGRLKSITVEIT” yielded a protease stability score of 1.99.
The value for “DEEEELMRSFLRLWFEAMITGDEHTLKELIDPDVRIEQGDKTHHGWEEFLRKFHKIKNMTIRHVELNHEHVQGDKIDLIITLHGHINGRHEELEVRLHARKVDGRWKMTRIHYQ” was 2.66.
“DEEEELNREALKEFHDDMKTGDERHILENLDPNTRIQFNGRDLHGRENAERFIRELIQKYGATVFNMKRVEVQGDWLHIDGELVIGDKKHRIHIIAVKINGRWTDTELRIK” showed a protease stability score of 1.48.
With “DEEEELNRRLVELMIRWHETGDFDMIEKYMDPDAKLNINGQEIHGMEKITNLFLWRFEFFKGAQYRMNRVRVQGDKASIDGRLNVDGRTHSIEIRIVIINGRNHSIEIHDR” the figure was 1.41; with “DEEEELREESEKFEHRAWETGDWKLLAELMDPHTRFITEDHDFHGRENMEKLLEDDLRRIKNATIRSIIIRRTHEINGRLLLIGIVDVEIDGKRVIRDVKYIKVKINGRWYITTMQVR”, 0.796.
As to “DEEEELSKIAIRIFLKTLETGDERTLSELMDPHARLVINGREYHGREEASKEWHKWVEHLRVRDIKISSVRINEHELILHEKFEVEVNGRNLKLDVLIIVVKVDGRWVLRTNTIN”, the protease stability score was determined as 2.68.
Sequence “DEEEELSKIAYHLTEHIWETGDEDLLKELLDPNTQVTQGEWHVHGRESMHRFLRHVRERLGVDQIDVDVKSVRAFNGVVTTHVNLHFNGRTYTMTLFSNKYNGKWTVKSMKIQ” returned a protease stability score of 1.29.
With “DEEEELSKRLVELLLKLLKTGNEEELIKNADPHAKVQIRINGREFIHHGWEAFSHLWRHYIIKFKNIRIHDRHMEIQGDWVHIHSEEQIGDKRIEVEIRIQIINGVQKNVHIDIHEH” the figure was 1.47; with “DEEEELSTEVMEHVLELVLTGDEERLWKLFDPHVRLDIDGKHIIGRELVSKINKDRRRELRIHHVELKRFETQGEKVHSDIRVDGWIDGRRIDTDAHVIVVVVDGRLKSLRIIHH”, 1.18; with “DEEEELTKRFLDIMLHNLKTGNEEEISKMADPNVKLDIGDKENHGRESMSRAWHEELRRLGAKHIDVRSVELQGDKLIIRMRLEVDGRTFEVLIIIIVVDGRLKHIQFKSH”, 0.704.
With “DEEEELTKRWIDHLLRLWNTGDEHHFLKMADPHVRIEQGDKEHIGREEMYRWLQQFKNIRLHIDDIDIQGDFLNIDGYINFNGVHREAKVHIRVINGKLHSIIIRIK” the figure was 1.3.
The value for “DEEEELTRLALEWLLKVSKTGDERLFREEFDPNVKLDINGRDFHGREEAVRVWLKFVHDAGFKHIEIERVLSFDGRLHLHGVEHIGDKEVETHILTEKFDGKWVMRSIKIN” was 0.301; that for “DEEEELVIHVAHEILHNHLTGDEERWEELADPRTKVEFNGVQNHGREFTNEYRKEFHNRYDHWEIRIRDYRVIDGVAHFDTELIIRQGDKEIRVKVHLEFIIVNGKVSEIRIEVR” was 0.607.
Regarding “DEEEELVLRIMHELLKLVLTGDFKRLSELLDPNVRMEIVVGDKHIEEHGRERMSHWILEWLRHARVKEFRIHHLIAYDGQTDSNVRLNVRIGDKEHRFRVIVILQVIDGKIRSLTIIFE”, the protease stability score was 1.51.
With “DEEEELVREFLHRLKQSHETGDEKMYRENADPDVRIEVNGVTIHGMERATRWASEMRFKHEELRHIEVDENHVHIDGIVKGRINGRDVETKVHFHVRKVNGVWLLKRIKFT” the figure was 0.956; with “DEEEELVRLATEHSLELMRTGDWSHLHKLMDPHALLSVNGREVHGRENAVRLIITILEDLGVKHFHLEHVEVIDGRVNIDGRLHQGDKKLNNEIWLVKINGRWRLKSIHIELK”, 1.17.
The value for “DEEEELWKELSKLIIHEWRTGDEEIFARLFDPNAKMRHLVDGRDDQHVGREKTVHVLLKVLEDLGIKHIKHEHITIQGDWVHMHTTLNVDGREIKVEMHFVVINGKYKSVEERTK” was 0.966; that for “DEEEELYRIALEESIRTLKTGDEDRVHELFDPRARIIVNGREFHGRERATKWAFDWIHKVKNMRFELRDFRIQGDKIIIHGKLHVNGQETEIIIIIHKIDGRWLIEQVEVR” was 1.4.
The value for “DEEEEMAHRLVEQHDEFIRTGDERINHELADPHAKVEIGDKEFIGRETFSKLMVEWRTREIRLTHIEVINGQVHLYQDVRVDYNGKEMHQHVRWDSLKINGKWFDHSVHIK” was 0.317; that for “DEEEEMAKKILDDLTHLLETGDEEVFRHLADPNVKVDELVNGRKIHRHGRQDWREIFKEMRLRHIHIRRVHVQGDKLHNDIEVDGDFNGRSHRDRTELILVIVDGRLRTIEIHVN” was 1.18.
“DEEEEMIEKIFKHLVEALRTGDWRQLEKLFDPNVRIEIGDKHSVGREEAVKFLEEWRKRADHIEHIDFRNRRSVDGRIEIEGRHLGHIDGRLVNTRVEFEIVIVDGKIEYNRLHVL” showed a protease stability score of 1.58.

For the origin of these results see the NTF2 design screens of Basanta et al. (2020).
